Positions count from the first letter of the chain named.
What was measured:
Assay in all cases: SPR, mAb captured, C2 mutant analyte;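 further: Anti-C2 mAbs captured on goat anti-human IgG Biacore CM5 chips, alanine or serine C2 surface mutants flowed over at 37 °C, double-referenced sensorgrams fitted to a 1:1 binding model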
[1] = biological target: T1, human C2 V418A (human, UniProt P06681 21-752)
T1 sequence: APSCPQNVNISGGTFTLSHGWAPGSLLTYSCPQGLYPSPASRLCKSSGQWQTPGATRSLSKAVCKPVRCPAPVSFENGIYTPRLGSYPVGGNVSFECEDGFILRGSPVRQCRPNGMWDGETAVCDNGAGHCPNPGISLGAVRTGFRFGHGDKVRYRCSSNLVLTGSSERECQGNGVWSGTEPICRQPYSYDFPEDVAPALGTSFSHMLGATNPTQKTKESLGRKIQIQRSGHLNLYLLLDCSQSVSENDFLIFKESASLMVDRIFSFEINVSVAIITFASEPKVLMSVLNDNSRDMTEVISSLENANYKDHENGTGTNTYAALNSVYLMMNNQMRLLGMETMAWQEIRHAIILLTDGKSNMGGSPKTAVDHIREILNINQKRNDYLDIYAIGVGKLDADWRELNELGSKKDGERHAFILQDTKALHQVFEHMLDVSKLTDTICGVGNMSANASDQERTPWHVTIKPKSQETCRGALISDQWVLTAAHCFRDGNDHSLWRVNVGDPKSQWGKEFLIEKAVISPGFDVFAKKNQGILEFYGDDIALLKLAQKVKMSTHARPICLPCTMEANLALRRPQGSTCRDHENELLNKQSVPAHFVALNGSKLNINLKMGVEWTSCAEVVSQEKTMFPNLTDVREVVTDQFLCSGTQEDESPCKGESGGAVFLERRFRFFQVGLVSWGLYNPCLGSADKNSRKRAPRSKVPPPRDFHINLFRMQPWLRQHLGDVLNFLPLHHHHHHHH

[2] = biological target: T2, human C2 R688A (human, UniProt P06681 21-752)
T2 sequence: T1 sequence with A398V, R668A

[3] = biological target: T3, human C2 N403A (human, UniProt P06681 21-752)
T3 sequence: T1 sequence with N383A, A398V

[4] = biological target: T4, human C2 S456A (human, UniProt P06681 21-752)
T4 sequence: T1 sequence with A398V, S436A

Kd [1]: 15.6 nM
Kd [2]: 96.2 nM
Kd [3]: 29.6 nM
Kd [4]: 157 nM
B1: RF16-214 (antibody, V domains shown)
VH: EVQLLESGGGLVQPGGSLRLSCAASGFTFSWYQMMWVRQAPGKGLEWVSRIYPSGGGTAYADSVKGRFTISRDNSKNTLYLQMNSLRAEDTAVYYCARDAGYGDNWGQGTLVTVSS
VL: QSALTQPPSVSVSPGQTASITCSGDKLGEKYASWYQQKAGQSPVMVIYQDRKRPSGIPERFSGSNSGNTATLTISGTQAMDEADYYCQAWDTRAVVFGGGTKLTVLG

From US20220332804A1 (CSL INNOVATION, published 2022)
